Where “and” joins values, the source holds several entries; their conditions need not be identical. Equal entries are not always repeated. Ends that are not written are not given here.
Key:
[1] = target: GST-DLG2 PDZ domain 3 (human); assay: Matrix/G assay ELISA, E6 peptide titrated on GST-PDZ
[2] = target: GST-DLG3 PDZ domains 1-2 (human), Q92796; assay: as above
[3] = target: GST-MAGI1 PDZ domain 2 (human); assay: as above
[4] = target: GST-PSD95 PDZ domain 2 (human); assay: as above
[5] = target: GST-PSD95 PDZ domains 1-3 (human), P78352; assay: as above
[6] = target: GST-SAST1 PDZ domain (human), Q9Y2H9; assay: as above
[7] = target: GST-SAST2 PDZ domain 1 (human); assay: as above
[8] = target: GST-SIP1 PDZ domain 1 (human); assay: as above
[9] = target: GST-CARD14 PDZ domain 1 (human); assay: G assay ELISA, 10 uM biotin peptide on anti-GST-captured GST-PDZ
[10] = target: GST-DLG1 PDZ domain 1 (human); assay: as above
[11] = target: GST-DLG1 PDZ domain 3 (human); assay: as above
[12] = target: GST-EBP50 PDZ domain 1, clone #167.2 (human); assay: as above
[13] = target: GST-FLJ00011 PDZ domain 1 (human); assay: as above
[14] = target: GST-FLJ11215 PDZ domain 1 (human); assay: as above
[15] = target: GST-FLJ12615 PDZ domain 1 (human); assay: as above
[16] = target: GST-HTRA 3 PDZ domain 1 (human); assay: as above
[17] = target: GST-INADL PDZ domain 4 (human); assay: as above
[18] = target: GST-KIAA0147 PDZ domain 2 (human); assay: as above
[19] = target: GST-KIAA0380 PDZ domain 1, clone #25.6 (human); assay: as above
[20] = target: GST-KIAA0561 PDZ domain 1 (human); assay: as above
[21] = target: GST-KIAA0751 PDZ domain 1 (human); assay: as above
[22] = target: GST-KIAA0973 PDZ domain 1, clone #148.5 (human); assay: as above
[23] = target: GST-MAGI 1 PDZ domain 3 (human); assay: as above
[24] = target: GST-MAGI 1 PDZ domain 4 (human); assay: as above
[25] = target: GST-MUPP1 PDZ domain 10 (human); assay: as above
[26] = target: GST-NSP PDZ domain 1, clone #42.5 (human); assay: as above
[27] = target: GST-Shroom PDZ domain 1 (human); assay: as above
[28] = target: GST-X-11 beta PDZ domain 2 (human); assay: as above
[29] = target: GST-ZO-2 PDZ domain 2 (human); assay: as above

Chain of GST-DLG3 PDZ domains 1-2 (human), Q92796 (Q92796 other isoform, or with tags, fused parts or gaps limits assumed): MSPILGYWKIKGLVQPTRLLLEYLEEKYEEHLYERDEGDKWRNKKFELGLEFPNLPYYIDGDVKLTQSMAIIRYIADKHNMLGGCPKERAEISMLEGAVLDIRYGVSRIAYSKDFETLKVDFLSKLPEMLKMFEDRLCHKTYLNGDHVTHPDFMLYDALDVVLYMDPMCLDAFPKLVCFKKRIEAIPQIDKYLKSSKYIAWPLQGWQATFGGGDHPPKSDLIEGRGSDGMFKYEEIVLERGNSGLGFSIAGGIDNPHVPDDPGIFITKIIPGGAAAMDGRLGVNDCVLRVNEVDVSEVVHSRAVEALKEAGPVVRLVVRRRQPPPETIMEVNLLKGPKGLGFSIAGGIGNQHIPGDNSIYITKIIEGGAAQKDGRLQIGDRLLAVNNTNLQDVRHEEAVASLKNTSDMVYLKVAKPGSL

WTGRCMSCCRSSRTRRETQL (not fully specified; cysteine pairing not given here) [HPV16 E6 C-terminal PDZ ligand peptide (20 mer, biotinylated), P03126 139-158] showed an EC50 [1] of 1.6 µM, an EC50 [2] of 3.8 µM and an EC50 [3] of 0.056 µM. For the same binder, the EC50 [4] was 6.8 µM, the EC50 [5] was 1 µM and the EC50 [6] was 0.58 µM. It also gave an EC50 [7] of 1.2 µM, an EC50 [8] of 7.5 µM and an Ave OD [9] of 0.342 A450 nm. It also gave an OD S/N (ratio to GST only well) [9] of 1.52, an Ave OD [10] of 0.391 A450 nm and an OD S/N (ratio to GST only well) [10] of 2.98. The Ave OD [11] was 0.398 A450 nm, the OD S/N (ratio to GST only well) [11] was 2.45 and the Ave OD [12] was 0.381 A450 nm and 0.355 A450 nm. The OD S/N (ratio to GST only well) [12] was 1.94 and 2.28, the Ave OD [13] was 0.423 A450 nm and the OD S/N (ratio to GST only well) [13] was 2.9. It also gave an Ave OD [14] of 0.449 A450 nm, an OD S/N (ratio to GST only well) [14] of 2.77 and an Ave OD [15] of 0.461 A450 nm. It also gave an OD S/N (ratio to GST only well) [15] of 2.24, an Ave OD [16] of 0.413 A450 nm and an OD S/N (ratio to GST only well) [16] of 1.34. The Ave OD [17] was 0.357 A450 nm, the OD S/N (ratio to GST only well) [17] was 2.15 and the Ave OD [18] was 0.374 A450 nm. For the same binder, the OD S/N (ratio to GST only well) [18] was 2.46, the Ave OD [19] was 0.376 A450 nm and the OD S/N (ratio to GST only well) [19] was 1.95. For the same binder, the Ave OD [20] was 0.347 A450 nm, the OD S/N (ratio to GST only well) [20] was 2.44 and the Ave OD [21] was 0.451 A450 nm. The OD S/N (ratio to GST only well) [21] was 2.1, the Ave OD [22] was 0.378 A450 nm and the OD S/N (ratio to GST only well) [22] was 1.68. The Ave OD [23] was 0.354 A450 nm, the OD S/N (ratio to GST only well) [23] was 1.46 and the Ave OD [24] was 0.395 A450 nm. For the same binder, the OD S/N (ratio to GST only well) [24] was 1.2, the Ave OD [25] was 0.393 A450 nm and 0.392 A450 nm and the OD S/N (ratio to GST only well) [25] was 2.03 and 1.96. It also gave an Ave OD [26] of 0.416 A450 nm, an OD S/N (ratio to GST only well) [26] of 1.95 and an Ave OD [27] of 0.361 A450 nm. For the same binder, the OD S/N (ratio to GST only well) [27] was 3.25, the Ave OD [28] was 0.431 A450 nm and 0.426 A450 nm and the OD S/N (ratio to GST only well) [28] was 2.95 and 1.78. It also gave an Ave OD [29] of 0.356 A450 nm and an OD S/N (ratio to GST only well) [29] of 2.15.

— patent US20040229298A1
